# Marks after values point to notes of the source that are not given here.
# T1: porcine, platelet-derived TGF-beta2 (Sus scrofa, UniProt P09858)
# T1 construct: porcine, platelet-derived ^125I-TGF-beta2; purchased R & D Systems; host or cells: porcine platelets
# T1 sequence (P09858 303-414 limits assumed): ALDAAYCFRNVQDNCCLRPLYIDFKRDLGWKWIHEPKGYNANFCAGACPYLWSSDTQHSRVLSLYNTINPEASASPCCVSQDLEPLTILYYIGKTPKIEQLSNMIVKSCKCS
# Key:
# Her2+ epithelial cells = experiment: Metastasis from Her2+ epithelial cells (non-surface lung tumors); type: in vivo, mouse
# Description: (§1) Epithelial cells from trastuzumab-sensitive (F2-1282) and trastuzumab-resistant (Fo5) tumor cell lines were injected into mammary fat pads of immunocompetent mice.
# Metastasis from such cells produces non-surface lung tumors (images not shown), the incidence and growth of which are not inhibited by anti-TGF-β antibody treatment.
# [1] = tested on: B16-F10 and B16-BL6 metastatic melanoma sublines; experiment: Mouse model of metastatic melanoma, secondary lung tumors; type: in vivo; conditions: approximately 30 mg/kg
# Description: (§2) This study used B16-F10 and B16-BL6 metastatic melanoma sublines, subcutaneously injected into immunocompetent mice, to test the effect of anti-TGF-β antibodies (2G7) on primary and secondary melanoma. In particular, C57Black 6 mice were injected subcutaneously with 500,000 tumor cells. The primary tumor developed was removed at day 14, and the mice were sacrificed around day 28. The anti-TGF-β antibody concentration was approximately 30 mg/kg. The B16-F10 subline is known to be able to colonize bone if introduced into the bone by direct injection (not as a result of subcutaneous injection). The B16-BL6 subline is metastatic to the lung.
# PyMT tumors = experiment: PyMT tumor mouse model of breast cancer; type: in vivo; conditions: relative to IgG control
# Description: This is a mouse model of breast cancer caused by expression of the polyoma middle T oncoprotein (PyMT) in the mammary epithelium. Primary tumor cells from PyMT tumors were injected (2 million or 5 million cells) into the mammary fat pad of a recipient mouse. The tumor developed was then passaged in a large number of further mice.
# [2] = molecular target: T2, TGF-beta1 dimer (nonreduced) form (Homo sapiens, UniProt P01137); experiment: Immunoblot analysis with rTGF-beta1; type: binding
# T2 construct: made in house
# T2 sequence (P01137 279-390 limits assumed): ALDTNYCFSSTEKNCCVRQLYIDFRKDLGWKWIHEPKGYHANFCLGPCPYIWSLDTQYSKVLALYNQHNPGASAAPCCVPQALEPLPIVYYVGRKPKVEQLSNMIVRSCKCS
# Description: One μg/lane of rTGF-beta1 was electrophoresed in 12% SDS-PAGE using non-reducing sample buffer to determine the reactivities of the various monoclonal antibodies with the dimer forms of rTGF-beta1. The peptides were transblotted onto nitrocellulose paper and probed with the appropriate monoclonal antibody conjugated with HRP. Bound antibody was visualized using the insoluble substrate 4-chloro-1-naphthol (Kirkegaard and Perry, Gathersburg, Md.). The reaction was stopped after 15 minutes by exhaustive washing with distilled water and the immunoblots were dried and photographed.
# Fo5 tumor cell line = experiment: Trastuzumab-resistant Her2+ breast cancer mouse model; type: in vivo; conditions: 25 mg/kg at day 0
# Description: as §1
# rTGF-beta1 = rTGF-beta1 (Homo sapiens, UniProt P01137); experiment: Immunoprecipitation of 125I-rTGF-beta1; type: binding; parameters: made in house; conditions: 2 μg purified monoclonal antibody
# rTGF-beta1, sequence (P01137 279-390 limits assumed): as above
# Description: (§3) The specificity of anti-TGF-beta monoclonal antibodies was also evaluated by their ability to immunoprecipitate ^125I-rTGF-beta1 or porcine, platelet-derived ^125I-TGF-beta2 (R & D Systems, Minneapolis, Minn.; specific activity 103.4 μCi/μg). Two μg of purified monoclonal antibody was incubated with 5×10^4 CPM of ^125I-rTGF-beta1 or ^125I-TGF-beta2 for two hours at 22° C. The immunocomplexes were pelleted with protein A-SEPHAROSE™ bead-formed agarose-based gel filtration matrix (Repligen, Cambridge, Mass.) coated with rabbit anti-mouse IgG (Boehringer Mannheim Biochemicals, Indianapolis, Ind.) and subsequently washed 3× with PBST. The complexes were dissociated from the protein A-SEPHAROSE™ bead-formed agarose-based gel filtration matrix with reducing sample buffer and electrophoresed into 12% SDS-polyacrylamide gel (SDS-PAGE) and exposed to autoradiography.
# B16-BL6 = experiment: Mouse model of metastatic melanoma, B16-BL6 subline; type: in vivo; conditions: about 30 mg/kg
# Description: as §2
# [3] = molecular target: T1, porcine, platelet-derived TGF-beta2; experiment: Immunoprecipitation of 125I-TGF-beta2; type: binding; conditions: 2 μg purified monoclonal antibody
# Description: as §3
# F2-1282 tumor cell line = experiment: Trastuzumab-sensitive Her2+ breast cancer mouse model; type: in vivo; conditions: 25 mg/kg at day 0
# Description: as §1
# 4T1 tumor cells = experiment: 4T1 mouse mammary carcinoma model; type: in vivo
# Description: In a first set of experiments, 4T1 cells were derived from a single spontaneously arising mammary tumor from a BALB/cfC3H mouse. Primary 4T1 tumor cells were injected into mammary fat pads of immunocompetent BALB/c mice One week after injection, palpable primary tumors were observed. The tumor spontaneously metastasized into the lung (about two week after injection), liver and spleen (about three weeks after injection) and bone (between about 4 and 5 weeks after injection).
# The animals were treated with 15 mg/kg, 25 mg/kg and 43 mg/kg doses of an anti-TGF-β antibody (2G7). Tests were carried out at day 0, 1, 2, and 1 and 2 weeks after injection of cancer cells.
# B16-F10 = experiment: Mouse model of metastatic melanoma, B16-F10 subline; type: in vivo; conditions: about 30 mg/kg
# Description: as §2
# TGF-beta1 = molecular target: T3, TGF-beta1 (Homo sapiens, UniProt P01137); experiment: Affinity determination, solid-phase radioimmunoassay / competitive inhibition, Scatchard analysis; type: binding; conditions: competitive inhibition assay
# T3 construct: made in house
# T3 sequence (P01137 279-390 limits assumed): as above
# Description: The solid-phase radioimmunoassay procedure described by Mariani et al, J. Immunol. Methods, 71: 43 (1984) was used to determine the affinities of the TGF-beta-specific monoclonal antibodies. Briefly, purified anti-TGF-beta monoclonal antibodies were coated on IMMUNLON™ 2 “REMOVAWELL”™ strips in pH 9.6 carbonate buffer for 18 hours at 4° C. The wells were washed and blocked as described above. 40,000 CPM/well of either ^125I-rTGF-beta1 or porcine ^125I-TGF-beta2 (R & D Systems), in 50 μl PBSG, was added to 2-fold serial dilutions of non-labeled rTGF-beta1 or porcine TGF-beta2 ranging from 2500 to 9.7 ng/well, in 50 μl PBSG. The resulting mixture was incubated for 18 hours at 4° C. The wells were washed and counted as described above and the affinity constants determined by Scatchard analysis (Munson and Pollard, Anal. Biochem., 107: 220 (1980)), which yields similar results as the non-linear regression analysis of Antoni and Mariani, J. Immunol. Meth., 83: 61 (1985).
# [4] = early treatment (5 weeks after injection of cells)
# [5] = mice injected with tumor cells, relative to mice with tumors treated with control antibodies
# [6] = mice without tumor cells, relative to control mice without tumors
molecule,measurement,setting,value
"2G7: murine anti-TGF-beta monoclonal antibody; VL and VH SEQ ID Nos. 1 and 2 (antibody, listed as Mus musculus, V domains shown, not fully specified; Xaa 3, 5 Unknown amino acid) VH: QVXLXQSGAELVRPGTSVKVSCKASGYAFTNYLIEWVKQRPGQGLEWIGVNNPGSGGSNYNEKFKGKATLTADKSSSTAYMQLSSLTSDDSAVYFCARSGGFYFDYWGQGTTQSPSPQPKRRAH VL: DIMMTQSPSSLAVSAGEKVTMSCKSSQSVLYSSNQKNYLAWYQQKPGQSPKLLIYWASTRESGVPDRFTGSGSGTDFTLTISSVQAEDLAVYYCHQYLSSDTFGGGTKLEIKRTVA",incidence and growth of non-surface lung tumors,Her2+ epithelial cells,not inhibited
same,incidence of metastatic lung tumor,[1],significantly decreased
same,number of metastatic lung tumor,[1],significantly decreased
same,incidence of metastatic lung tumor,[1]; listed as anti-TGF-β antibody,decreases
same,number of metastatic lung tumor,[1]; listed as anti-TGF-β antibody,decreases
same,primary tumor growth,PyMT tumors,decreased
same,band strength in indirect immunoblot,[2]; nonreduced TGF-beta1 dimer,much stronger band than either 4A11 or 12H5
same,reactivity in indirect immunoblot with TGF-beta1 dimer,[2]; nonreduced form,reacted
same,size of primary tumor,Fo5 tumor cell line,increased
same,systemic VEGF levels,Fo5 tumor cell line,increased
same,immunoprecipitation of 125I-rTGF-beta1 (autoradiograph),rTGF-beta1,immunoprecipitated equivalent amounts
same,survival of mice with melanoma,B16-BL6,increased
same,survival of mice with melanoma,B16-BL6; listed as anti-TGF-β antibody,increases
same,immunoprecipitation of 125I-TGF-beta2 (autoradiograph),[3],immunoprecipitated ^125I-TGF-beta2 to any measurable degree
same,size of primary tumor,F2-1282 tumor cell line,increased
same,systemic VEGF levels,F2-1282 tumor cell line,increased
same,results of 25-mg/kg dose versus 15-mg/kg dose,"4T1 tumor cells; 25 mg/kg vs 15 mg/kg, data not shown",better results than the 15-mg/kg dose
same,results of 25-mg/kg versus 43-mg/kg doses,4T1 tumor cells; 25 mg/kg vs 43 mg/kg,no significant difference
same,size of primary tumor,4T1 tumor cells; 43-mg/kg dose,transiently decreased
same,systemic levels of VEGF,4T1 tumor cells; 43-mg/kg dose,reduced
same,histology scores (grade and number of lobes affected) of secondary lung tumors,4T1 tumor cells; [4],decreased
same,volume of secondary lung tumors,4T1 tumor cells; [4],decreased
same,weight of secondary lung tumors,4T1 tumor cells; [4],decreased
same,breast tumor-induced bone destruction,4T1 tumor cells; early treatment (5 weeks after injection of tumor cells),inhibited certain parameters of breast tumor-induced bone destruction
same,BS/BV,4T1 tumor cells; [5],−6.6%
same,BV/TV,4T1 tumor cells; [5],+14.3%
same,Mineral density,4T1 tumor cells; [5],+6.3%
same,Trabecular number,4T1 tumor cells; [5],+6.5%**
same,Trabecular thickness,4T1 tumor cells; [5],+7.2%
same,BS/BV,4T1 tumor cells; [6],ns
same,BV/TV,4T1 tumor cells; [6],−4.8%
same,Mineral density,4T1 tumor cells; [6],ns
same,Trabecular number,4T1 tumor cells; [6],−2.8%*
same,Trabecular thickness,4T1 tumor cells; [6],ns
same,survival of mice with melanoma,B16-F10,increased
same,survival of mice with melanoma,B16-F10; listed as anti-TGF-β antibody,increases
same,affinity of interaction between TGF-beta1 and the monoclonal antibody,TGF-beta1,1.2e+08 L/mol
